The text below walks through data of publication PMC11853027.

The assay has as its target LS174T cells. The assay is described as follows: cell-binding assay, cell-bound Hoc detected by Western blot. Conditions: After 1.5 h of incubation; parent: est. 1.0; read off a plot.
In the case of “Hoc protein of phage ΦPNJ-9 (wild type, recombinant) L184”, the other: Ratio of Hoc/MUC2 was determined as 0.5.

For the substance “Hoc protein of phage ΦPNJ-9 (wild type, recombinant) S183”, the other: Ratio of Hoc/MUC2 was 0.53.

For the substance “Hoc protein of phage ΦPNJ-9 (wild type, recombinant) T185”, the other: Ratio of Hoc/MUC2 was determined as 0.47.
